Measurements published in patent US6528098B2, “Preparation of a therapeutic composition” (Advanced Viral Research Corp., priority 1996, dated 2003).
Entries after “also recorded” stand apart in the source; their conditions may differ. No end group written: not given here.

Columns and labels:
[1] = biological target: T1, chymotrypsin (Bos taurus, UniProt P00766); assay: Treatment of Product R with chymotrypsin, SDS-PAGE on a 16% gel; assay type: physicochemical; design: key to Sensitivity of the Peptide Components of Product R (SDS-PAGE): Chymotrypsin (250 μg/ml): “−” represents no substantial alteration of the stainable bands; “+” represents substantial alteration of the stainable bands; conditions: 250 μg/ml chymotrypsin, 25° C., 19 hours
T1 construct: purchased Boehringer Mannheim, USA
Experimental: (§1) The biochemical properties of the peptides: Some biochemical properties of the silverstainable peptide components of Product R are analyzed using various catabolic enzymes, as described below:
The treatment with chymotrypsin (Boehringer Mannheim, USA):Chymotrypsin is a serine protease that specifically hydrolyses the peptide bonds of tyrosine, phenylalanine and tryptophan at C-terminals. It also cleaves peptide bonds of leucine, methionine, alanine, aspartic acid and glutamic acid at C-terminals at relatively lower rates. A Product R sample is incubated in a reaction buffer containing 100 mM Tris-HCl, pH 7.6, 10 mM CaCl2 and 250 μg/ml of sequencing grade chymotrypsin at 25° C. for 19 hours and then subject to SDS-PAGE on a 16% gel.
(§2) A summary of the above described treatments by catabolic enzymes is provided in the following TABLE III, and the results of the treatment are shown in FIG. 5, wherein “−” represents no substantial alteration of the stainable bands and “+” represents substantial alteration of the stainable bands.

[2] = test system: IL-8 secretion by U937 cells; assay: IL-8 secretion by cultured U937 cells, ELISA; assay type: cell-based, human; conditions: for production of interlukin-8 (IL-8) in U937 cells: general statement; for up-regulation of IL-8 secretion compared with Product R: peptide solutions 2 mg/ml, equimolar mixture 4 mg/ml, final concentration 10% in culture media, FIG. 20
Experimental: (§3) Ammonium sulfate precipitation of Product U peptides: Product U samples are lyophilized and re-dissolved in 20% of original sample volume in water (5X concentrated). Ammonium sulfate crystals are added to the solution to reach 60% ammonium sulfate saturation (390 mg/ml solution). Gentle mixing solubilizes crystals. Protein precipitates appear after 30 mm to 1 hr incubation on ice and is centrifuged at 16,000×g for 30 min. at […]. The pellet is dissolved in 5% of original sample volume in water. The solution is desalted by gel filtration chromatography through a column of BioGel P-2. The column is eluted with 0.1X phosphate buffered saline (PBS). Only protein containing fractions are pooled and lyophilized.
(§4) Separation and isolation of two major neptide of Product R by gel ruhranon chromatography: A BioGel P-10 column (1.6 cm×52 cm) was equilibrated with 0.1X concentration of PBS. Two ml of 2X concentrated Product R was applied to the column, which was eluted with the same buffer at a flow rate of 25 mI/hr. Four mm. fractions were collected. All protein-containing fractions are analyzed by Sodium dodecyl sulfate polyacrilamide gel electrophoresis (SDS-PAGE). Fraction, containing primarily peptide A and peptide B are pooled separately and lyophilized. Peptide A pool contains very little contamination of the other peptide, however, the peptide B pool is highly enriched but still contains peptide A as a major contaminant. A reasonable estimate of peptide purity in the pools is >90% for peptide A and >75% for peptide B.
U937 cell culture: The U937 human hystiocytic lymphoma cell line was purchased from the American Type Culture Collection. Cells were thawed and maintained in logarithmic growth (5-9×10^5 cells/mL) in RPMI 1640 culture medium, supplemented with 10% fetal bovine serum, heat inactivated at 56° C. for 30 min, 2mM L-glutamine and 1x Penicillin-Streptomycin.
Product R or isolated peptide treatment: Cells (1.0×10^5/ml) are cultured in growth medium containing Product R, isolated purified peptide solution, mixed peptides solution or Dulbecco's PBS for 2 days. Following centrifugation, the culture supernatants are analyzed using chemokine ELISA kits. Final concentration of Product R in the culture medium was 10% (v/v). The ammonium sulfate precipitated peptides were reconstituted in culture medium to yield a 10 mg/ml solution. Two 2-fold dilutions were prepared, also using culture medium as diluent. These solutions were used at a final concentration of 10% in the U937 cell culture. The individual lyophilized peptides were reconstituted in endotoxin-free water to yield 2 mg/ml solutions (which is the approximate concentration of each peptide in Product R). An equimolar mixture of both peptides was prepared at a final concentration of 4 mg/ml. Both were used at a final concentration of 10% in the culture media for the assays.
(§5) Measurement of secreted IL-8 and MCP-1: The concentrations of IL-8 and MCP-1 in the culture supernatants are assayed by ELISA, using human IL-S ELISA kits (Endogen. Inc.) and Quantikine human MCP-1 ELISA kits (R&D Systems, Inc.), respectively, according to manufacturer's instructions (with slight modifications for the MCP-1 ELISA). […] Absorbances are measured on a PowerWave 200 Microplate Scanning Spectrophotometer. Dilutions of the standard protein supplied by each manufacturer are utilized to generate a four-parameter logistic fit standard curve, and the concentration of chemokine in each supernatant is determined by extrapolation.

[3] = biological target: T2, proteinase K (Parengyodontium album, UniProt P06873); assay: Treatment of Product R with proteinase K, SDS-PAGE on a 16% gel, silver stain; assay type: physicochemical; design: key to Sensitivity of the Peptide Components of Product R (SDS-PAGE): Proteinase K (100 μg/ml) / Sensitivity of the Peptide Components of Product R (SDS-PAGE): Proteinase K (800 μg/ml): “−” represents no substantial alteration of the stainable bands; “+” represents substantial alteration of the stainable bands; conditions: for Sensitivity of the Peptide Components of Product R (SDS-PAGE): Proteinase K (800 μg/ml) / change of silver stained bands after proteinase K treatment: 800 μg/ml proteinase K, one hour
T2 construct: purchased ICN Biochemicals
T2 sequence (P06873 106-384): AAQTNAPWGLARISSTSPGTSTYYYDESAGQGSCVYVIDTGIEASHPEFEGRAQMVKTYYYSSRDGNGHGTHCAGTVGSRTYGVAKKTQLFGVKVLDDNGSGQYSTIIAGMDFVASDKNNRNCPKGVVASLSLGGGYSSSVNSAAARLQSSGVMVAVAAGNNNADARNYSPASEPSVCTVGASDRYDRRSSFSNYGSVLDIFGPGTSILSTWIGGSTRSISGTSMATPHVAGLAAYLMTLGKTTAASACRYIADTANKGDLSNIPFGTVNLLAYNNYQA
Experimental: as §1
The treatment with proteinase K (ICN Biochemicals): Proteinase K is a non-specific broad spectrum protease that cleaves peptide bonds at the C-terminal of aliphatic, aromatic and hydrophobic amino acids. It may cleave all serum peptides completely at 50 μg/ml within one hour. […]
as §2

[4] = test system: MCP-1 secretion by U937 cells; assay: MCP-1 secretion by cultured U937 cells, ELISA; assay type: cell-based, human; conditions: for production of monocyte chemotactic protein 1 (MCP-1) in U937 cells: general statement; for up-regulation of MCP-1 secretion compared with Product R: peptide solutions 2 mg/ml, equimolar mixture 4 mg/ml, final concentration 10% in culture media, FIG. 20
Experimental: as §3, §4
U937 cell culture: The U937 human hystiocytic lymphoma cell line was purchased from the American Type Culture Collection. […]
Product R or isolated peptide treatment: Cells (1.0×10^5/ml) are cultured in growth medium containing Product R, isolated purified peptide solution, mixed peptides solution or Dulbecco's PBS for 2 days. Following centrifugation, the culture supernatants are analyzed using chemokine ELISA kits. […]
as §5

[5] = test system: Calf thymus alkaline phosphatase (CIAP); assay: Treatment of Product R with alkaline phosphatase, SDS-PAGE on a 16% gel; assay type: physicochemical; design: key to Sensitivity of the Peptide Components of Product R (SDS-PAGE): Alkaline Phosphatase (200 units/ml): “−” represents no substantial alteration of the stainable bands; “+” represents substantial alteration of the stainable bands; conditions: 200 units/ml CIAP, 37° C., about one hour
Experimental: as §1
The treatment with alkaline phosphatase (Life Technologies, USA): Calf thymus alkaline phosphatase (CIAP) is a phosphomonoesterase that hydrolyses 5′-phosphate groups from DNA, RNA and nucleotides. A Product R sample is incubated in a reaction buffer provided by the manufacturer of the enzyme and 200 units/ml CIAP at 37° C. for about one hour and subjected to SDS-PAGE on a 16% gel.
as §2

Sequence	Sensitivity of the Peptide Components of Product R (SDS-PAGE): Chymotrypsin (250 μg/ml) [1]	change of band intensity after chymotrypsin treatment [1]	production of interlukin-8 (IL-8) in U937 cells [2]	up-regulation of IL-8 secretion compared with Product R ([2]; listed as Peptide B)	up-regulation of IL-8 secretion compared with Product R ([2]; listed as peptide-B)	Sensitivity of the Peptide Components of Product R (SDS-PAGE): Proteinase K (100 μg/ml) ([3]; 100 μg/ml proteinase K, 40° C., 30 minutes)	Sensitivity of the Peptide Components of Product R (SDS-PAGE): Proteinase K (800 μg/ml) [3]	change of silver stained bands after proteinase K treatment [3]	production of monocyte chemotactic protein 1 (MCP-1) in U937 cells [4]	up-regulation of MCP-1 secretion compared with Product R ([4]; listed as peptide-B)	Sensitivity of the Peptide Components of Product R (SDS-PAGE): Alkaline Phosphatase (200 units/ml) [5]	change of band intensity / hydrolysis by alkaline phosphatase [5]	up-regulation of IL-8 secretion compared with Product R [2]	up-regulation of MCP-1 secretion compared with Product R [4]
GEIPDAGGRIVDYYVGFSDSV (not fully specified (residue 18)) [Peptide-B, 21-amino acid peptide linked at serine 18 through a diphosphodiester group to the 3′-end of an adenylyl (3′-5′) adenosine moiety]	−	no apparent effect	capable of inducing the production; also recorded: contributes more to the activity than peptide-A	maintained most of the ability of Product R to up-regulate IL-8 secretion	induces higher levels of secretion of IL-8 or MCP-1 than peptide-A	−	−	no obvious change	capable of inducing the production; also recorded: contributes more to the activity than peptide-A	failed to elicit a response same as that of Product R; also recorded: slightly more active than peptide A; also recorded: induces higher levels of secretion of IL-8 or MCP-1 than peptide-A	−	resistance		
KVLPVPQKAVPYPQRDMPIQAFLLYQEPVLG [Peptide-A, 31-amino-acid long peptide derived from bovine beta-casein, constituent of Product R]	+	significantly reduces the intensity	capable of inducing the production				+	disappears	capable of inducing the production		−		only elicited a less response	failed to elicit a response same as that of Product R
